Columns and labels:
[1] = target: T1, wild-type FIX with C-terminal His-tag (human, UniProt P00740 47-461); assay: SPR (Biacore T200), His-tagged FIX captured by anti-His antibody, one-armed antibody as analyte; % of wild-type binding
T1 construct: Secreted mature FIX from expi293F cells; also called WT
Description: (§1) SPR analyses were carried out on Biacore 4000 or Biacore T200 instruments (Biacore AB, Uppsala, Sweden). For the experiments on the T200 instrument the following conditions were applied: measurements were conducted at a temperature of 25° C. Anti-His antibody at 25 μg/ml (R&D Systems, catalogue #MAB050) was immobilized on a CM5 sensor chip using standard amine coupling chemistry. […] at 25 nM were injected at a flow rate of 10 μl/min for 1 min and were captured via their His-tag by the immobilized anti-His antibody. Subsequently, 200 nM (with 4-fold serial dilutions), 1600 nM (with 3-fold serial dilutions), and 2000 nM (with 3-fold serial dilution) of mAb4-0004, mAb3-3279 and mAb4-0673, respectively, were injected at a flow rate of 50 μl/min for 5 min to allow for binding to captured FIX variant followed by a 10 min buffer injection allowing for dissociation of the monovalent anti-FIX antibodies. The running buffer used was 20 mM Tris, 150 mM NaCl, 5 mM CaCl₂, 0.05% Tween-20, 1 mg/ml BSA, pH 7.4. This was also used for dilution of anti-FIX antibody and FIX samples. Regeneration of the chip was achieved using 10 mM Glycine pH 2.0. Binding data were analysed according to a 1:1 model using BiaEvaluation 4.1 supplied by the manufacturer (Biacore AB, Uppsala, Sweden). A similar experimental set-up was used for the Biacore 4000 instrument.

[2] = target: FIX K301A with C-terminal His-tag (human, UniProt P00740 47-461); assay: SPR (Biacore T200), His-tagged FIX variant captured by anti-His antibody, one-armed antibody as analyte; % of wild-type binding
Description: as §1
(§2) A more detailed binding analysis was conducted for residues defined as epitope residues (see example 6) using the Biacore T200 instrument.

[3] = target: FIX D332A with C-terminal His-tag (human, UniProt P00740 47-461); assay: as above
Description: as §1, §2

[4] = target: FIX R333A with C-terminal His-tag (human, UniProt P00740 47-461); assay: as above
Description: as §1, §2

[5] = target: FIX A334L with C-terminal His-tag (human, UniProt P00740 47-461); assay: as above
Description: as §1, §2

[6] = target: FIX T335A with C-terminal His-tag (human, UniProt P00740 47-461); assay: as above
Description: as §1, §2

[7] = target: FIX L337A with C-terminal His-tag (human, UniProt P00740 47-461); assay: as above
Description: as §1, §2

[8] = target: FIX R338A with C-terminal His-tag (human, UniProt P00740 47-461); assay: as above
Description: as §1, §2

[9] = target: FIX S339L with C-terminal His-tag (human, UniProt P00740 47-461); assay: as above
Description: as §1, §2

[10] = target: FIX T340A with C-terminal His-tag (human, UniProt P00740 47-461); assay: as above
Description: as §1, §2

[11] = target: FIX K341E with C-terminal His-tag (human, UniProt P00740 47-461); assay: as above
Description: as §1, §2

[12] = target: FIX K341A with C-terminal His-tag (human, UniProt P00740 47-461); assay: as above
Description: as §1, §2

[13] = target: FIX T343I with C-terminal His-tag (human, UniProt P00740 47-461); assay: as above
Description: as §1, §2

[14] = target: FIX T343A with C-terminal His-tag (human, UniProt P00740 47-461); assay: as above
Description: as §1, §2

[15] = target: FIX N346A with C-terminal His-tag (human, UniProt P00740 47-461); assay: as above
Description: as §1, §2

[16] = target: FIX N346Q with C-terminal His-tag (human, UniProt P00740 47-461); assay: as above
Description: as §1, §2

[17] = target: FIX D332S with C-terminal His-tag (human, UniProt P00740 47-461); assay: as above
Description: as §1, §2

T1 sequence (P00740 other isoform, or with tags, fused parts or gaps limits assumed): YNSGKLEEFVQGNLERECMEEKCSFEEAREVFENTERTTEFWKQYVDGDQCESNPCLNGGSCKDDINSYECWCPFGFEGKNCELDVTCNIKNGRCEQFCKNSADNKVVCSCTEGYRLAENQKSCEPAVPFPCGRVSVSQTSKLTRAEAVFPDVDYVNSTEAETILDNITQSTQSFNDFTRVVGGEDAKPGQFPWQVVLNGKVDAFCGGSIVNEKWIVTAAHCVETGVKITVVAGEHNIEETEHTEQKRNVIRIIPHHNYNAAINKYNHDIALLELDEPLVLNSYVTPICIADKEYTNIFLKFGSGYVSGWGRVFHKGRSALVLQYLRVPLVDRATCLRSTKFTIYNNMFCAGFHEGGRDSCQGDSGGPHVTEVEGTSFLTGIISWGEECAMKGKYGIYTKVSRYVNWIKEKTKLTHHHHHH
FIX R338A with C-terminal His-tag, sequence (P00740 other isoform, or with tags, fused parts or gaps R338A R338A limits assumed): as the sequence (P00740 other isoform, or with tags, fused parts or gaps limits assumed) above, with R338A counted along it
FIX T340A with C-terminal His-tag, sequence (P00740 other isoform, or with tags, fused parts or gaps T340A T340A limits assumed): as the sequence (P00740 other isoform, or with tags, fused parts or gaps limits assumed) above, with T340A counted along it
FIX K301A with C-terminal His-tag, sequence (P00740 other isoform, or with tags, fused parts or gaps K301A K301A limits assumed): as the sequence (P00740 other isoform, or with tags, fused parts or gaps limits assumed) above, with K301A counted along it
FIX L337A with C-terminal His-tag, sequence (P00740 other isoform, or with tags, fused parts or gaps L337A L337A limits assumed): as the sequence (P00740 other isoform, or with tags, fused parts or gaps limits assumed) above, with L337A counted along it
FIX K341A with C-terminal His-tag, sequence (P00740 other isoform, or with tags, fused parts or gaps K341A K341A limits assumed): as the sequence (P00740 other isoform, or with tags, fused parts or gaps limits assumed) above, with K341A counted along it
FIX T343I with C-terminal His-tag, sequence (P00740 other isoform, or with tags, fused parts or gaps T343I T343I limits assumed): as the sequence (P00740 other isoform, or with tags, fused parts or gaps limits assumed) above, with T343I counted along it
FIX R333A with C-terminal His-tag, sequence (P00740 other isoform, or with tags, fused parts or gaps R333A R333A limits assumed): as the sequence (P00740 other isoform, or with tags, fused parts or gaps limits assumed) above, with R333A counted along it
FIX T343A with C-terminal His-tag, sequence (P00740 other isoform, or with tags, fused parts or gaps T343A T343A limits assumed): as the sequence (P00740 other isoform, or with tags, fused parts or gaps limits assumed) above, with T343A counted along it
FIX N346A with C-terminal His-tag, sequence (P00740 other isoform, or with tags, fused parts or gaps N346A N346A limits assumed): as the sequence (P00740 other isoform, or with tags, fused parts or gaps limits assumed) above, with N346A counted along it
FIX S339L with C-terminal His-tag, sequence (P00740 other isoform, or with tags, fused parts or gaps S339L S339L limits assumed): as the sequence (P00740 other isoform, or with tags, fused parts or gaps limits assumed) above, with S339L counted along it
FIX K341E with C-terminal His-tag, sequence (P00740 other isoform, or with tags, fused parts or gaps K341E K341E limits assumed): as the sequence (P00740 other isoform, or with tags, fused parts or gaps limits assumed) above, with K341E counted along it
FIX D332A with C-terminal His-tag, sequence (P00740 other isoform, or with tags, fused parts or gaps D332A D332A limits assumed): as the sequence (P00740 other isoform, or with tags, fused parts or gaps limits assumed) above, with D332A counted along it
FIX A334L with C-terminal His-tag, sequence (P00740 other isoform, or with tags, fused parts or gaps A334L A334L limits assumed): as the sequence (P00740 other isoform, or with tags, fused parts or gaps limits assumed) above, with A334L counted along it
FIX T335A with C-terminal His-tag, sequence (P00740 other isoform, or with tags, fused parts or gaps T335A T335A limits assumed): as the sequence (P00740 other isoform, or with tags, fused parts or gaps limits assumed) above, with T335A counted along it
FIX D332S with C-terminal His-tag, sequence (P00740 other isoform, or with tags, fused parts or gaps D332S D332S limits assumed): as the sequence (P00740 other isoform, or with tags, fused parts or gaps limits assumed) above, with D332S counted along it
FIX N346Q with C-terminal His-tag, sequence (P00740 other isoform, or with tags, fused parts or gaps N346Q N346Q limits assumed): as the sequence (P00740 other isoform, or with tags, fused parts or gaps limits assumed) above, with N346Q counted along it

Binding (%) relative to wild-type [1] | Binding (%) relative to wild-type [2] | Binding (%) relative to wild-type [3] | Binding (%) relative to wild-type [4] | Binding (%) relative to wild-type [5] | Binding (%) relative to wild-type [6] | Binding (%) relative to wild-type [7] | Binding (%) relative to wild-type [8] | Binding (%) relative to wild-type [9] | Binding (%) relative to wild-type [10] | Binding (%) relative to wild-type [11] | Binding (%) relative to wild-type [12] | Binding (%) relative to wild-type [13] | Binding (%) relative to wild-type [14] | Binding (%) relative to wild-type [15] | Binding (%) relative to wild-type [16] | Binding (%) relative to wild-type [17] | Binder
100% | 93% | 17% | 4% | 44% | 71% | 7% | 3% | 73% | 67% | 53% | 96% | 90% | 63% | 51% | 94% |  | mAb4-0673 (monovalent one-armed variant of mAb0-1886) (antibody, V domains shown) VH: EVQLVQSGAEVKKPGESLRISCKGSGYSFTSYWIGWVRQMPGKGLEWMGMIDPSDSYTDYGPSFRGHVTISADKSISTAYLQWSSLKASDTAMYYCARVRIMEGAFDIWGQGTMVTVSS VL: not shown
100% | 66% | 50% | 66% | 51% | 62% | 52% | 2% | 66% | 37% | 2% | 21% | 48% | 38% | 73% |  | 66% | mAb4-0004 (monovalent one-armed variant of mAb0-1998) (antibody, V domains shown) VH: EVQLVESGGGLVQPGRSLKLSCAASGFTFDDYAMHWVRQVPGKGLEWVSGISWNGDNIGYVDSVKGRFTISRDNAKNSLYLQLNSLRAEDTALYYCVKSYGSGSFYNAFDSWGQGTLVTVSS VL: DIQMTQSPSTLSASAGDRVTITCRASQSISSWLAWYQQKPGKAPKFLIYKASSLESGVPSRFSGSGSGTEFSLTISSLQPDDFATYYCLEYSSYIRTFGQGTKVEIK

From patent publication US20250011468A1 (Novo Nordisk, published 2025)
